Experimental findings from the DeepSol protein solubility set are described below.

The data set can be described thus: soluble on expression in E. coli; label from the status in PepcDB or PDB records.
Take “MAHHHHHHMVHKKQAWAKRVKKERFKKKFLTRMQATRLLQMESVQFRRLCILKGIYPRALNRSKQKQSGNEKQYYLAREIKWLVRDQIAEKMMAYRAWEKKVKRAEAMGRSEDLKVLQTSRVKPRHSLVATIKERYPYFIDAIRDVDDAMSMIHLYAFLSPEIKSDTTIEIHHSLTSGLSERAKEVCERWDRYVARARVLTKGFISIKGYYYEAIVKGERVRWLCPHEYAHRFPPGIQQYVMLSFLEFYLEMMKFVLFKLESDLARDEADRLAAEDEEGVTRANAEDFANGAALAVLDVGANQAQAKAVKEAESKRSLMEEELHKVRELFRGLTFFISREVPAKHFALVINACGGRVATDYVPSNITHVVVDRPALPPGMKKHDQLEYVQPQYIFDCLNARLVLPVTGYRIGEELPPHVSPFSVSITNSAEDNAAVVQVKKDHPRIVGYVPARVHEIRKLINPSYSAVDPEGKVAHLEDEYSDEESHVAVPEMDMEDDVSLSGDELAEARRKPAWQEEEVTEEVQRPKLSAFKVKKQREMNLMNAPTNEVVARRRQALRKAQEKSRQTETSEARLQRKMSEVKRQEAATRKMQLQVARKKAARFYKMVSGVVQGTAKKVATLEAKAKHIAEGKLRKTEDGKGLVNKRLEARRQRAEAKGKKLKERKAGNPYKKLPKWVQ”: the “soluble on expression in E. coli” value is “not soluble”. With “MAQIIDFFAAFRGYYSDGSTFIQIISLGSHHNLSVHISERMLSESGIKLGNFLSATVSLAEHPKNFQLKRLNLQVTVEGNFAKVHGIEANLEKNADGILVFSTNNFASAKATNQGLEIGRYKITVQAVKPSEKDLFNGMKFFGTVEEKISGLTRRVASNNTNQVIGEGFRNMSISGKRTVS” the entry was “not soluble”; with “MTKFESSVKVIPYSQERVYEKLADLSNLEAIKDRLPEDKVKNMSFDTDTLSFNVDPVGQLTLRIIEREPSKCIKFETTNSPLPFNMWIQLVAVSEEECKLKVTIGLEINPFMKAMVQKPLNEGLEKMADMLSMIQYLEHHHHHH”, “soluble”; with “MGSDKIHHHHHHMPETIKNISKKDAILKAALQLFSHRSFDGTTIPEIARVANVGAGTIYRYFISKEDLVNELFVRVLDDFTEHLQVGLHGQMDTRTRFHHLFNNAWNYVMNNVEAFLFINLNDEATYLNDRSRKSFSRMWDYIAEMVEQGADKGELIKLDPKFVASLVYGPLIPISKRFNNDNRQASQALAKALEEATWRAISTD”, “not soluble”. In the case of “MATPDTSAAKMAGQDRQKLKVVAWLQNLVERLKGWTPGHCQKLFDEKELIQLCYRAREVFWKNNVKLELKAPVKICGDLHGQYEDLLALLELNGWPPETKYLFLGDYVDRGPFSIEVISLLFAYQVLHPDKVFLLRGNHESRPVNMQYGFFMECRKRFSNALYDAFQLAFYCMPLCAVVSDKIICMHGGISEDLVDLRQLDKVERPCDVPDIGVIADLTWADPDATIQMYAESQRGAGRVFGAEAVKKFLNTHHLELVVRAHQVVMDGYEFFADRQLVTIFSAPSYCGQMDNAAAVMTVDEELVCSFTVMRPDLKKDKEKKAAVGIVPN” it was “not soluble”. With “MTSILNPVIRKEYSELKRPDLRGKFICASCGQHFQHNASLNRHRRLLHGNEHTCMMCDRKLNAKETIRDHMRNEHNLFQVFTCGCCNWSFSSKRQLSEHTKCIQGTGAPGDTIPIAKSCNAPGSLIQSTIQGTPPVVKTGRKRGGSLSSSSSVSTSISSRDVSGSPPPTEEEAERKVLFDNAVDTILQSKFFTYQQITEVDTWIKIIENANTLADTLQRINKTKKIKAEMPADKDVKRFKLEVE” the entry was “not soluble”.

“MPFKDQLFLASQYLAPHHLVSRLMGRAADCRAPEIKNRMIARFVRRYNVDMSEALVEDPLAYASFNDFFTRALKPDARPLDDEPGAALCPADGAISQIGAIDNGRIFQAKGHSFGLTDLLGGDAERAAPFAGGQFATIYLSPRDYHRVHMPLAGTLREMVHVPGRLFSVNPLTARSVPELFARNERVACLFDTEHGPMALVLVGAMIVASIETVWAGLVTPHKRQVRSVRYDAAARAPIHLDKGAEMGRFKLGSTVIVLFGPKRLRWLDLPSVRGPVRMGETLALPASTAISFPESELEHHHHHH”: the “soluble on expression in E. coli” value is “not soluble”. With “MNNIGVPAREVDVVVTGAGQAGLSSAFHLRRTGFEPERDFVVLDHAPRPGGAWQFRWPSLTYRKVHGMHALPGMELTDADPSRPSSEVIAEYFDTYERTFDLRVRRPVDVTAVREGEGGRLLVQTSDGTWATRALINATGTWDRPFWPRYPGQESFRGRQLHTAQYPGPEEFAGQRVVVVGGGASGTQHLMEIAPYAASTTWVTRRPPVFREGPFSEDVGRAAVAMVEERVRRGLPPRSVVSVTGLPLNDAVRRAIADGVLDRLPVFDRITPDGVEWDDGRRVAADVILWATGFRAAIDHLAPLRLRAPGGGIRVEGTRVVADPRIHLVGYGPSASTIGANRAGRAAVRDIRRLLAGEPLTVLEHHHHHH” the entry was “soluble”; with “SQKLADFKLPQFFNYPPYFTLQPVRDTREKQIQLWKELILDYCKSQKIFLIGVEEDFPLFSNSAIDRSLSHEARETFLSAIVGEGRAEWLDKGHRKCLILWHRIQDWADIVLQFVRDNGLEDSVMTVEEIRSGTESLGTELQGIDRTILMRALKLLENKGKLALFKGTSADDEGVKFSV”, “soluble”; with “MATAEVLNIGKKLYEGKTKEVYELLDSPGKVLLQSKDQITAGNAARKNHLEGKAAISNKITSCIFQLLQEAGIKTAFTRKCGETAFIAPQCEMIPIEWVCRRIATGSFLKRNPGVKEGYKFYPPKVELFFKDDANNDPQWSEEQLIAAKFCFAGLLIGQTEVDIMSHATQAIFEILEKSWLPQNCTLVDMKIEFGVDVTTKEIVLADVIDNDSWRLWPSGDRSQQKDKQSYRDLKEVTPEGLQMVKKNFEWVAERVELLLKSESQCRVVVLMGSTSDLGHCEKIKKACGNFGIPCELRVTSAHKGPDETLRIKAEYEGDGIPTVFVAVAGRSNGLGPVMSGNTAYPVISCPPLTPDWGVQDVWSSLRLPSGLGCSTVLSPEGSAQFAAQIFGLSNHLVWSKLRASILNTWISLKQADKKIRECNL”, “soluble”. With “MGHHHHHHSHMFFKQFYDKHLSQASYLIGCQKTGEAMIIDPIRDLSSYIRVADEEGLTITHAAETHIHADFASGIRDVAIKLNASIYVSGESDDTLGYKNMPNQTHFVQHNDDIYVGNIKLKVLHTPGHTPESISFLLTDEGAGAQVPMGLFSGDFIFVGDIGRPDLLEKAVKVEGSSEIGAKQMFKSIESIKDLPNYIQIWPGHGAGSPCGKSLGAIPTSTLGYEKQTNWAFSENNEATFIDKLISDQPAPPHHFAQMKKINQFGMNLYQPYTVYPATNTNRLTFDLRSKEAYHGGHIEGTINIPYDKNFINQIGWYLNYDQEINLIGEYHLVSKATHTLQLIGYDDVAGYQLPQSKIQTRSIHSEDITGNESHILDVRNDNEWNNGHLSQAVHVPHGKLLETDLPFNRNDVIYVHCQSGIRSSIAIGILEHKGYHNIINVNEGYKDIHLS” the entry was “not soluble”; with “MAHHHHHHMHRNIHGGTASATIANSALVSPPPHTTIPPLPAGMDPTYYALSLLRRRRLEECIAVSTQYLAVFNEKMRLTSSGTQKQADGVDEPLWFIQTRALITQDWFDELDVDNDGVDEVLLDGEQNISSTAHRPGTSLQRKDAPTGTTIPTGMAQRQGTARPISSRYGYVRPGTQSRNRPGTMSIRPITSRMMRIGTASLQAVPGGPHIDVRKLNLEKYGRTKPIVARILCDFLLHVEHRPRMVLELGAIALEQQPKDWWWMSRMGQAYYRLGLLREAERMFKAALTIQENVADVMRLARVFTKMDQPLKALDLLSEASKKNPMDHHLLLHMARLYDQLQDAEKSCQLYRRVLQLDSSNMESIACIAAYMFYEKKQPEIALRLYRRLLQMGVQTTELWNNLGLCCFYSSQYDIALSCLQRAVAISTEDETLADVWYNIGHIGIGTGDLGLAHRAFKVALGANPRHAEALNNLAVLNLNIGQVDQAMNDLAMAIEVSPEQHEPLYNFALLAFKAGNFEKSYKLLTQALEACPDHPESALLQATLRKSLATL”, “not soluble”. For “MGSDKIHHHHHHMTRKRAKTHSVKKAPLFVLTSSPNPKRTTSNKSAGIWSYWTRRTAYAMSTHIIPRLQKVIDGEDQGGISKAVNWQGGGGFRYFRLAPTLIVNDKWGNQIINPDYNPEMLAEALAKLEGLPDFSWILELGSGFAFVGRQYRLEVNGDEFFIDLLFYHIRLKCYVVVELKAAAFKPEHAGQLNFYLAAVDAQVKAPDDNPTIGLLLCKTQNRLVAEYALSDIDKPIGIAEYELVRALPEPLVTNLPTVEQLESELSDWQEDGEFFGV”, the “soluble on expression in E. coli” value is on record as “not soluble”.
